This assay addresses CHIKV VLPs, E1-E2 heterodimers on the particle surface (Chikungunya virus, VLP strain not …, UniProt Q5XXP3). The assay can be described thus: ELISA.

Chain of CHIKV VLPs, E1-E2 heterodimers on the particle surface (Q5XXP3 whole entry, looked up, one chain of several): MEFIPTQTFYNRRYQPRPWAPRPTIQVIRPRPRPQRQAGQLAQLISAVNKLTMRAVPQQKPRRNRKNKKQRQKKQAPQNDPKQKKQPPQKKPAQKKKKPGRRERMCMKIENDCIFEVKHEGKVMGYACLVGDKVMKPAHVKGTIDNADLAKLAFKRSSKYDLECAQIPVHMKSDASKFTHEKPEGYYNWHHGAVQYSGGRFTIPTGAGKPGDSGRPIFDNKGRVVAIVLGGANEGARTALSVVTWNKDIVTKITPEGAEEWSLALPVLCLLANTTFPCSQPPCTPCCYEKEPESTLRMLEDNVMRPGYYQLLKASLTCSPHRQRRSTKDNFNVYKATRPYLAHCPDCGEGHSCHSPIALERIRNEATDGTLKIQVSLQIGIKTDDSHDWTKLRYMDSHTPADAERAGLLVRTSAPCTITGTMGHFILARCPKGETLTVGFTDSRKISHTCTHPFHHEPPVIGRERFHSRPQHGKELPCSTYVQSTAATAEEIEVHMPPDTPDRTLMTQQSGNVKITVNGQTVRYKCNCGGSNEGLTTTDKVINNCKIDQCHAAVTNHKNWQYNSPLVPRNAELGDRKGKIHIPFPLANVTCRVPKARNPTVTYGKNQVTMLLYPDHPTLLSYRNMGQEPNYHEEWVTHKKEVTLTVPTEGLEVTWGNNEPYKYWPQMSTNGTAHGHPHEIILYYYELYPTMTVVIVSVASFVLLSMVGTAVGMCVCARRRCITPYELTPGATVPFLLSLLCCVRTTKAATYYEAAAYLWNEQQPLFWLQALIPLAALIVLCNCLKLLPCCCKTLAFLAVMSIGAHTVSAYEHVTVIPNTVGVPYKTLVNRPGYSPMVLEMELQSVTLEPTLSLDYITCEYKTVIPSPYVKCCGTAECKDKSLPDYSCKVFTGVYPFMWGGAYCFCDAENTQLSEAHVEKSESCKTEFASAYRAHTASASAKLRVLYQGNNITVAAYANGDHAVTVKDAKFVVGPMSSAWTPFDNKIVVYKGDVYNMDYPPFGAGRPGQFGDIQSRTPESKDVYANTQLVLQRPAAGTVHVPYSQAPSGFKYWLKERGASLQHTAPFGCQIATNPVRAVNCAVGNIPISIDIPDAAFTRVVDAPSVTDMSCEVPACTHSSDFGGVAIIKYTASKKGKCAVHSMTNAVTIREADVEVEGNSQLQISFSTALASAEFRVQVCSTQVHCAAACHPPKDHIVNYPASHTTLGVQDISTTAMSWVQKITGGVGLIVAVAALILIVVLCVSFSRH

B1: CHK-263 IgG (antibody, V domains shown)
VH: VQLQQSGAELVKPGASVKISCKASGYAFSSYWMNWVKQRPGKGLEWIGQIYPGDGDTNYNGKFKGKATLTADKSSSTAYMQLSSLTSEDSAVYFCARGGLTIDYWGQGTTLTVSS
VL: DIVLTQSPATLSVTPGDSVSLSCRASQSISDNLHWYQQKSHESPGLLIKYASQSISGIPSRFSGSGSGTDFTLSINSVETEDFGMYFCQQSNSWPYTFGGGTKLEIK
For the molecule B1, the binding result is given as “binds”.

B2: CHK-124 IgG (antibody, V domains shown)
VH: QLQESGGGLVQPGGSMKLSCVASGFTFSNYWMNWVRQSPEKGLEWVAQIRLKSDSYATYYADSVKGRFTVSRDDSKSNVYLQMNSLRAEDTGIYYCTDFYGFGDFFPYWGQGTLVTVSS
VL: DIVMTQSPKFMSTSIGDRVSVTCQASQNVGTNVAWYQQKPGQSPKPLIYSASYRYSGVPGRFTGSGSGTDFTLTINNVQSEDLADYFCQQYNSFPLTFGAGTKLELK
Consider B2, for which the binding result is “binds”.
